Measurements published in US20250075002A1.
One block for each binder: values may come before it.

Key:
[1] = molecular target: Cyno MUC1 (full length), on cells (cyno); assay: flow cytometry on HEK293/cyno MUC1 cells
[2] = molecular target: MUC1 as expressed on normal activated human T cells (human) (UniProt P15941); assay: FACS, PHA-L-activated human PBMC, live αβTCR+ gate, Donor 191180405C; antibody 10 µg/mL by paragraph 182
[3] = molecular target: MUC1 as expressed on normal activated human T cells (human) (UniProt P15941); assay: FACS, PHA-L-activated human PBMC, live αβTCR+ gate, Donor 190980805C; antibody 10 µg/mL by paragraph 182

Chain of Cyno MUC1 (full length), on cells (cyno) (chain, as listed by the source limits assumed, form in doubt): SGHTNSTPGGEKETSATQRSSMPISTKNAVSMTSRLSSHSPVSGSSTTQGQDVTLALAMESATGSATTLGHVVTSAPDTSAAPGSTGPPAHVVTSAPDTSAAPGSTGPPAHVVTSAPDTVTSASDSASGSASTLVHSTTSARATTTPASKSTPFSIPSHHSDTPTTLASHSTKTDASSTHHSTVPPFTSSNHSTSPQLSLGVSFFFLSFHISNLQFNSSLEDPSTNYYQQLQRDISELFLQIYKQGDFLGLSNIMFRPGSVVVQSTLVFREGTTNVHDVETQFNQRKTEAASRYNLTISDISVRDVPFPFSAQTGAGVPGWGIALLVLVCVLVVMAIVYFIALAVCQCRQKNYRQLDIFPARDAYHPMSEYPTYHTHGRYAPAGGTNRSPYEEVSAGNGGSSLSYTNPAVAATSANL
Chain of MUC1 as expressed on normal activated human T cells (human) (P15941 24-1255): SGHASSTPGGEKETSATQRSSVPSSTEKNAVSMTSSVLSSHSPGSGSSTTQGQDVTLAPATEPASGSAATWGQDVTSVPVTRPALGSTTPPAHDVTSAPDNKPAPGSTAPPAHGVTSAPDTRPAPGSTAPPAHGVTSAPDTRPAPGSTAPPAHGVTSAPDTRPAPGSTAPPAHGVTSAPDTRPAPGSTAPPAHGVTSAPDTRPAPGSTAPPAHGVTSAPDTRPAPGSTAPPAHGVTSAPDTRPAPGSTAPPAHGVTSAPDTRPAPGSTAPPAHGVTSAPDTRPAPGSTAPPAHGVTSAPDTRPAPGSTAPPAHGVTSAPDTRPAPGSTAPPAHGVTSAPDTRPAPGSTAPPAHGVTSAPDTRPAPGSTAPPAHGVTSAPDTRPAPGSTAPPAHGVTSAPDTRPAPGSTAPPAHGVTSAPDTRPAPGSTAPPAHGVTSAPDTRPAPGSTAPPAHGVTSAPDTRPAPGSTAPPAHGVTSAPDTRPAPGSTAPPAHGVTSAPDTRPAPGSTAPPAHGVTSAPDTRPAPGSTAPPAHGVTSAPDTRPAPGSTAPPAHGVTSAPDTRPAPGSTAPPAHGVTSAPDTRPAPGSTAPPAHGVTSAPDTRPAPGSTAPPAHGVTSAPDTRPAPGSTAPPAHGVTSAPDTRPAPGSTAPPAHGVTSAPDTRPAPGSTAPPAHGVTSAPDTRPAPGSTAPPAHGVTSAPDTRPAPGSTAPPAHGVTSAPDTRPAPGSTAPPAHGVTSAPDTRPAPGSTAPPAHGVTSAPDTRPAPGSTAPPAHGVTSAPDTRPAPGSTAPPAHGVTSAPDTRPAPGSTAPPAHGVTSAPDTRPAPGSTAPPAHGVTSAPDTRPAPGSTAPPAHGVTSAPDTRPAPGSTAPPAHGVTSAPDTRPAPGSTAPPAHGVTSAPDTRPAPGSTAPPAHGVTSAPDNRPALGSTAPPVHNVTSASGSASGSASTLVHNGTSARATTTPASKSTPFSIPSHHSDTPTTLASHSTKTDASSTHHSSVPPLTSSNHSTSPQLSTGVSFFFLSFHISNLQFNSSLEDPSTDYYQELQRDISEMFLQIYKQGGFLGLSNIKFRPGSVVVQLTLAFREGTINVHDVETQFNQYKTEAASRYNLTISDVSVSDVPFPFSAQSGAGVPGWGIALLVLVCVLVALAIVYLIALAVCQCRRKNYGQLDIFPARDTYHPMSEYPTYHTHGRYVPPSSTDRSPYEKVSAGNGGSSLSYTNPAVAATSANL

EC50 [1]: 41.8 nM
B1: chBG346P (antibody, V domains shown)
VH: EVQLQQSGAELVKPGASVKISCKASGYTFTNYWMNWVRQRPGQGLEWIGEIDPSDSYTNNNQKFKDKATLTVDKSSSTAYMQLSSLTSEDSAVYYCARGRRTGFAYWGQGTLVTVSS
VL: DIQMTQSPASLSVSVGETVTITCRASENIYSNLAWYQKKQGKSPQLLVYAATNLADGVPSRFSGSGSGTQYSLKINSLQSEDFGNYYCQHFWGTPYTFGGGTKLEIK

EC50 [1]: 12.7 nM
B2: chBG219P (antibody, V domains shown)
VH: EVQLVESGGGLVKPGGSLKLSCAASGFTFNDYIMSWVRQTPEKRLEWVATVSSGGDNTYYPDSVKGRFTISRDNAKNNLYLQMSSLRSEDTALYYCTRYGGLGAMDYWGQGTSVTVSS
VL: DIVMTQSPASLSASVGETVTITCRASGNIHNYLTWYQQKQGKSPQLLVYNAKTLADGVPSRFSGSGSGPQYSLKINSLQPEDFGSYYCQHFWSVPYTFGGGTRLEIK

EC50 [1]: 7.55 nM
B3: chBG138P (antibody, V domains shown)
VH: QVQLLQSGAELARPGASVKMSCKASGYTFTTYTMHWIKQRPGQGLEWIGYINPGSDYTHYNQKFKDKATLTADKSSSTAYMHLYSLTSEDSAVYYCARQGNYAAYYFDYWGQGTTLTVSS
VL: DIQMTQSPASLSASVGETVTITCRASGNIHNFLVWYQQKQGKSPQLLVYNAKTLTDGVPSRFSGSGSGTQYSLKIKSLQPEDFGTYYCQNFWNVPFTFGSGTKLEIK

percent of αβTCR+ cells in the MUC1-positive gate (dashed box) [2]: 2.3% | percent of αβTCR+ cells in the MUC1-positive gate (dashed box) [3]: 2.4%
B4: huBG138P-Hz4 (antibody, from another filing, V domains shown)
VH: QVQLVQSGAEVKKPGASVKVSCKASGYTFTTYTMHWVRQAPGQGLEWMGYINPGSDYTHYNQKFKDRVTITADKSASTAYMELSSLRSEDTAVYYCARQGNYAAYYFDYWGQGTLVTVSS
VL: DIQMTQSPSSLSASVGDRVTITCRASGNIHNFLVWYQQKPGKSPKLLIYNAKTLTSGVPSRFSGSGSGTQYTLTISSLQPEDVATYYCQNFWNVPFTFGQGTKLEIK
